Positions count from the first letter of the chain named. Read-outs that look alike come from different tables or passages of the source. Blank lines part the entries; values can stand above or below the binder they belong to.
Experiments:
[1] = biological target: T1, human BAFF-R expressed on cells (human, UniProt Q96RJ3 1-184); assay: flow cytometry, human BAFF-R+ isogenic CHO
T1 construct: Cell surface BAFF-R, endogenous on B cell lines and primary B cells or overexpressed on isogenic CHO cells; also called hBAFF-R; hBAFF-R-CHO
Source text: Isogenic cell lines overexpressing human and cynomolgus BAFF-R were developed from CHO cells.

[2] = biological target: T2, human NKG2D expressed on cells (human, UniProt P26718 1-216); assay: flow cytometry on KHYG-1 cells (no CD16), MFI
T2 construct: whole, on cells; also called NKG2D on KHYG-1 cells; NKG2D-positive NK cells and CD8+ T cells
T2 sequence (looked up): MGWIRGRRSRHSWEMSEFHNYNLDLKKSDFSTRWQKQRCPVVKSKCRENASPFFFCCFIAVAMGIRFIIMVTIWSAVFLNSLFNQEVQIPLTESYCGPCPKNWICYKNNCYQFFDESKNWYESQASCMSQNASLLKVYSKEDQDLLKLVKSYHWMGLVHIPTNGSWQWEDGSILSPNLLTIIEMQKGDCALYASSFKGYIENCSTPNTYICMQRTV

[3] = biological target: T1, human BAFF-R expressed on cells; assay: flow cytometry, RL cells
[4] = biological target: T1, human BAFF-R expressed on cells; assay: flow cytometry, CHO-hBAFF-R cells
[5] = biological target: T1, human BAFF-R expressed on cells; assay: flow cytometry, BJAB cells
[6] = biological target: T1, human BAFF-R expressed on cells; assay: flow cytometry, Raji cells
[7] = biological target: T1, human BAFF-R expressed on cells; assay: flow cytometry, Jeko-1 cells
[8] = biological target: T1, human BAFF-R expressed on cells; assay: flow cytometry, human BAFF-R CHO cells
Source text: Isogenic cell lines overexpressing human and cynomolgus BAFF-R on the backbone of CHO cell line were designed.

[9] = biological target: T1, human BAFF-R expressed on cells; assay: flow cytometry, Rs4;11 cells
[10] = biological target: T1, human BAFF-R expressed on cells; assay: flow cytometry, SUDHL-6 cells
[11] = biological target: T3, cynomolgus monkey BAFF-R expressed on cells (cynomolgus monkey); assay: flow cytometry, cyno BAFF-R CHO cells
T3 construct: whole, on cells; also called cBAFF-R; cynoBAFF-R

[12] = biological target: T1, human BAFF-R expressed on cells; assay: blocking of BAFF-biotin on hBAFF-R CHO cells
[13] = biological target: T1, human BAFF-R expressed on cells; assay: blocking of BAFF-biotin on hBAFF-R CHO cells, flow cytometry
Protocol: Briefly, CHO cells expressing human BAFF-R were harvested, washed in cold FACS buffer, and seeded at a density of 100,000 cells per well. Test articles were diluted in FACS buffer, and 50 μL of diluted multispecific binding protein or mAb was added to cells, incubated on ice for 60 minutes, then washed with FACS buffer. […] Cells were incubated with 100 μL of 1:200 streptavidin-PE diluted in FACS buffer and incubated on ice for 30 minutes then washed with FACS buffer. Cells were then incubated in 100 μL of 1:1,000 dilution of live/dead dye in PBS for 15 minutes, then washed with FACS buffer, and fixed. After incubation, cells were washed with FACS buffer and resuspended in FACS buffer for analysis with flow cytometry. Median fluorescent intensity (MFI) of each sample and the secondary-only control was calculated. […] Data were fit to a four-parameter non-linear regression curve using GraphPad Prism.

[14] = biological target: T1, human BAFF-R expressed on cells; assay: flow cytometry, human BAFF-R CHO cells; remark: listed apart in the source
[15] = biological target: T1, human BAFF-R expressed on cells; assay: cell-based or functional assay
[16] = biological target: T1, human BAFF-R expressed on cells; assay: flow cytometry, human BAFF-R CHO cells; remark: listed apart in the source
[17] = biological target: T1, human BAFF-R expressed on cells; assay: flow cytometry, BAFF-R-CHO cells
[18] = biological target: T3, cynomolgus monkey BAFF-R expressed on …; assay: flow cytometry, cyno BAFF-R CHO cells; remark: listed apart in the source
[19] = biological target: T1, human BAFF-R expressed on cells; assay: flow cytometry, BAFF-R CHO cells; isogenic CHO cells; human and cynomolgus not told apart
[20] = biological target: T1, human BAFF-R expressed on cells; assay: flow cytometry blocking assay on hBAFFR-CHO cells; blocked ligand: 20 nM BAFF-biotin
[21] = biological target: T3, cynomolgus monkey BAFF-R expressed on …; assay: flow cytometry on cBAFFR-CHO cells
[22] = biological target: T1, human BAFF-R expressed on cells; assay: flow cytometry blocking assay on hBAFFR-CHO cells; blocked ligand: 20 nM BAFF-biotin; remark: listed apart in the source
[23] = biological target: T1, human BAFF-R expressed on cells; assay: flow cytometry on hBAFFR-CHO cells
[24] = biological target: T1, human BAFF-R expressed on cells; assay: flow cytometry, RAJI cells
Protocol: The BAFF-R positive human B lymphoblastoid RAJI cell line was used to assess TriNKET binding to cell surface BAFF-R. Certain BAFF-R TriNKETs in the 2-Fab and F3′ formats, as described in the “exemplary multispecific binding proteins” subsection above, were diluted and incubated with Raji cells. Binding patterns of TriNKETs and parental monoclonal antibodies were detected using a fluorophore conjugated anti-human IgG secondary antibody. The cells were then incubated with a fluorophore conjugated anti-human IgG secondary antibody and were analyzed by flow cytometry. The mean fluorescence intensity (MFI) values were normalized to secondary antibody only controls to obtain fold over background (FOB) values.

[25] = biological target: T1, human BAFF-R expressed on cells; assay: blocking of BAFF-biotin on BAFF-R CHO cells
[26] = biological target: T1, human BAFF-R expressed on cells; assay: flow cytometry blocking assay on hBAFFR-CHO cells; blocked ligand: 20 nM BAFF-biotin; remark: listed apart in the source

EC50 [1]: 0.39 nM
Max FOB [1]: 123 fold over background
binding result [2]: no binding (tested: about 700 nM)
EC50 [3]: 0.14 nM
Max FOB [3]: 6 fold over background
EC50 [4]: 0.39 nM
Max FOB [4]: 123 fold over background
EC50 [5]: 0.18 nM
Max FOB [5]: 12 fold over background
EC50 [6]: 0.1 nM
EC50 [7]: 0.07 nM
Max FOB [7]: 5 fold over background
EC50 [8]: 0.4 nM
Max FOB [8]: 57 fold over background
EC50 [9]: 0.06 nM
Max FOB [9]: 3 fold over background
EC50 [10]: 0.19 nM
Max FOB [10]: 13 fold over background
B1: Parental mAb (AB1753) (antibody, V domains shown)
VH: EVQLVQSGGGVVQPGRSLRLSCAASGFTFSSYGMHWVRQAPGKGLEWVAVIWYDASNKYYGDSVKGRFTISRDNSKNTLYLQMNSLRDEDTAVYYCARRFTHLRGQYIEDYGLDVWGQGTTVTVSS
VL: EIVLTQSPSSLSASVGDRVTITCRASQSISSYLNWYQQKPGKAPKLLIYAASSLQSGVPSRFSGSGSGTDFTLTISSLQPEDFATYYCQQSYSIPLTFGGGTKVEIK
notes: also called parental BAFF-R specific antibody

EC50 [11]: > 15 nM
IC50 [12]: > 1000 nM
IC50 [13]: 488 nM
EC50 [14]: > 10 nM
KHYG-A-CD16Av mediated Cytolysis of Ramos cells EC50 [15]: 0.64 nM
EC50 [16]: 6.8 nM
EC50 [17]: > 10 nM
EC50 [18]: 7.11 nM
EC50 [19]: ~10 nM
B2: AB0369 (bispecific antibody, V domains shown)
VH: B1 VH with G44C, A55G, H102M, Q106L, Y107I, L113M
VL: not shown
notes: also called AB0369-001

IC50 (read off the curve) [20]: ~0.4 nM
EC50 (read off the curve) [21]: ~0.4 nM
IC50 (read off the curve) [22]: ~0.8 nM
EC50 (read off the curve) [23]: ~0.5 nM
IC50 [13]: 0.5 nM
EC50 [24]: 3 pM
IC50 [25]: 0.38 nM
IC50 (read off the curve) [26]: ~0.4 nM
B3: Ianalumab-mAb (antibody, V domains shown)
VH: QVQLQQSGPGLVKPSQTLSLTCAISGDSVSSNSAAWGWIRQSPGRGLEWLGRIYYRSKWYNSYAVSVKSRITINPDTSKNQFSLQLNSVTPEDTAVYYCARYQWVPKIGVFDSWGQGTLVTVSS
VL: DIVLTQSPATLSLSPGERATLSCRASQFILPEYLSWYQQKPGQAPRLLIYGSSSRATGVPARFSGSGSGTDFTLTISSLEPEDFAVYYCQQFYSSPLTFGQGTKVEIK
notes: Parental control mAb; also called Ianalumab-based tool-mAb; Tool-mAb

From patent US20240360223A1 (DRAGONFLY THERAPEUTICS, published 2024)
